B1: Transcriptional activator GLI3 (Homo sapiens), P10071 (parent)
chain: MEAQSHSSTTTEKKKVENSIVKCSTRTDVSEKAVASSTTSNEDESPGQTYHRERRNAITMQPQNVQGLSKVSEEPSTSSDERASLIKKEIHGSLPHVAEPSVPYRGTVFAMDPRNGYMEPHYHPPHLFPAFHPPVPIDARHHEGRYHYDPSPIPPLHMTSALSSSPTYPDLPFIRISPHRNPTAASESPFSPPHPYINPYMDYIRSLHSSPSLSMISATRGLSPTDAPHAGVSPAEYYHQMALLTGQRSPYADIIPSAATAGTGAIHMEYLHAMDSTRFSSPRLSARPSRKRTLSISPLSDHSFDLQTMIRTSPNSLVTILNNSRSSSSASGSYGHLSASAISPALSFTYSSAPVSLHMHQQILSRQQSLGSAFGHSPPLIHPAPTFPTQRPIPGIPTVLNPVQVSSGPSESSQNKPTSESAVSSTGDPMHNKRSKIKPDEDLPSPGARGQQEQPEGTTLVKEEGDKDESKQEPEVIYETNCHWEGCAREFDTQEQLVHHINNDHIHGEKKEFVCRWLDCSREQKPFKAQYMLVVHMRRHTGEKPHKCTFEGCTKAYSRLENLKTHLRSHTGEKPYVCEHEGCNKAFSNASDRAKHQNRTHSNEKPYVCKIPGCTKRYTDPSSLRKHVKTVHGPEAHVTKKQRGDIHPRPPPPRDSGSHSQSRSPGRPTQGALGEQQDLSNTTSKREECLQVKTVKAEKPMTSQPSPGGQSSCSSQQSPISNYSNSGLELPLTDGGSIGDLSAIDETPIMDSTISTATTALALQARRNPAGTKWMEHVKLERLKQVNGMFPRLNPILPPKAPAVSPLIGNGTQSNNTCSLGGPMTLLPGRSDLSGVDVTMLNMLNRRDSSASTISSAYLSSRRSSGISPCFSSRRSSEASQAEGRPQNVSVADSYDPISTDASRRSSEASQSDGLPSLLSLTPAQQYRLKAKYAAATGGPPPTPLPNMERMSLKTRLALLGDALEPGVALPPVHAPRRCSDGGAHGYGRRHLQPHDAPGHGVRRASDPVRTGSEGLALPRVPRFSSLSSCNPPAMATSAEKRSLVLQNYTRPEGGQSRNFHSSPCPPSITENVTLESLTMDADANLNDEDFLPDDVVQYLNSQNQAGYEQHFPSALPDDSKVPHGPGDFDAPGLPDSHAGQQFHALEQPCPEGSKTDLPIQWNEVSSGSADLSSSKLKCGPRPAVPQTRAFGFCNGMVVHPQNPLRSGPAGGYQTLGENSNPYGGPEHLMLHNSPGSGTSGNAFHEQPCKAPQYGNCLNRQPVAPGALDGACGAGIQASKLKSTPMQGSGGQLNFGLPVAPNESAGSMVNGMQNQDPVGQGYLAHQLLGDSMQHPGAGRPGQQMLGQISATSHINIYQGPESCLPGAHGMGSQPSSLAVVRGYQPCASFGGSRRQAMPRDSLALQSGQLSDTSQTCRVNGIKMEMKGQPHPLCSNLQNYSGQFYDQTVGFSQQDTKAGSFSISDASCLLQGTSAKNSELLSPGANQVTSTVDSLDSHDLEGVQIDFDAIIDDGDHSSLMSGALSPSIIQNLSHSSSRLTTPRASLPFPALSMSTTNMAIGDMSSLLTSLAEESKFLAVMQ
partner: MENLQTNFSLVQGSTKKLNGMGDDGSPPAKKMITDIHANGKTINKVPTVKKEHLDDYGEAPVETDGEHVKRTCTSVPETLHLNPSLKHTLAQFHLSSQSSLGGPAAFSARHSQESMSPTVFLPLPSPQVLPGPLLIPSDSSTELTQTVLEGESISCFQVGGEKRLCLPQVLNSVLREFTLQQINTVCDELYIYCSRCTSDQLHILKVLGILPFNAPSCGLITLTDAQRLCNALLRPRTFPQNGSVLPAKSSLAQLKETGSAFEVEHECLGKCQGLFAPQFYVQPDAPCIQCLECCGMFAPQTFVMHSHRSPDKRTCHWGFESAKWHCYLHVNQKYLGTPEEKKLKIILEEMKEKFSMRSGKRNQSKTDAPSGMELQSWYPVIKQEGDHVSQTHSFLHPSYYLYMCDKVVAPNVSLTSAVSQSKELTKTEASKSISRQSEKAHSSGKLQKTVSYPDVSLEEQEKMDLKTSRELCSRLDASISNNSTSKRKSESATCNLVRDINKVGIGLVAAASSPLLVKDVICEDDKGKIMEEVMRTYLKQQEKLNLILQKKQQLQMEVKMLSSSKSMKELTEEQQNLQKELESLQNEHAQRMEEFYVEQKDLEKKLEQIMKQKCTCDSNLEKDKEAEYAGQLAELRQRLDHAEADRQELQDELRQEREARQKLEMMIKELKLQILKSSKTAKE

Variants of: B1
Conditions: with skil_human SKIL

Row | Variant | effect of a mutation on the interaction
1 | M111T | decreasing interaction strength
